According to article PMC4755954, “Impact of clinically tested NEP/ACE inhibitors on tumor uptake of [^111In-DOTA]MG11—first estimates for clinical translation” (EJNMMI Research, 2016):
Square brackets hold non-standard residues; d marks the D form. Peptide text beside a SMILES is read from it. * marks the point of attachment. DOTA = O=C(O)CN1CCN(CC(=O)O)CCN(CC(=O)*)CCN(CC(=O)O)CC1

Assays:
[1] = iv infusion of 150 mg in 250 mL of isotonic glucose in 42 patients; cited from earlier work
Excerpt: Aiming at clinical translation, our interest has been attracted by two clinically certified NEP inhibitors, TO and its prodrug Race. TO is a potent, reversible NEP inhibitor with a relative rapid onset of action, but its water solubility is not ideal for iv injection as a bolus together with the radiopeptide. […] The impact of TO on the bioavailability and tumor uptake of our paradigm compound [^111In-DOTA] ...

[2] = in vivo; design: species or system SCID mice; settings: male, SCID, mouse, iv, 10 pmol total peptide, total radioactivity, %ID/g tissue ± SD
Method: (§1) Mice had access to drinking water ad libitum until they were euthanized at 4 h pi. Blood samples, organs of interest, and tumors were collected immediately after dissection, weighted, and measured for radioactivity in the gamma counter; only stomachs were emptied of their contents prior to measurements. Biodistribution data were calculated as percent of injected dose per gram tissue (% ID/g) with the aid of suitable standards of the injected dose, using the GraphPad Prism Software (San Diego, CA).
Inocula of freshly harvested A431-CCK2R(+/−) cells (1.6 × 10^7/1.4 × 10^7 cell suspensions in 150 μL saline) were sc-injected in the right and left flanks of the SCID mice (male SCID mice, 6 weeks of age and of 18 ± 2 g body weight on arrival day; NCSR “Demokritos” Animal House). The animals were kept in aseptic conditions for 8 days till well-palpable tumors (0.26 ± 0.08 g) developed at the inoculation sites. At the day of the experiment, the mice received a bolus of [^111In-DOTA]MG11 (100 μL, 37–74 kBq, 10 pmol total peptide, in saline/EtOH 9/1 v/v) through the tail vein, coinjected with (a) vehicle (100 μL; control group, n = 5), (b) three different doses of PA (3 μg, n = 5; 30 μg, n = 4; or 300 μg PA, n = 10, dissolved in 100 μL vehicle), and (c) three different doses of TO (1.5, 15, or 150 μg TO dissolved in 100 μL vehicle, all groups of n = 4). Mice had free access to drinking water until they were sacrificed at 4 h pi, and biodistribution was conducted as described above.

[3] = in vivo; design: species or system SCID mice; settings: male, SCID, mouse, iv, 10 pmol total peptide, total radioactivity, %ID/g tissue ± SD; remark: listed apart in the source
Method: In-house male SCID mice (NCSR “Demokritos” Animal House) of 6 weeks of age at the time of arrival (18 ± 2 g body weight) were inoculated subcutaneously (sc) in their flanks with a suspension of freshly harvested AR42J cells (1 × 10^7 cells in ~150 μL saline). Animals were kept in aseptic conditions for 14 days when well-palpable tumors developed at the inoculation sites (0.31 ± 0.17 g). At the day of biodistribution, animals received a bolus of [^111In-DOTA]MG11 (100 μL, 37–74 kBq, 10 pmol total peptide, in saline/EtOH 9/1 v/v) through the tail vein, coinjected with (a) vehicle (100 μL; control group, n = 10), (b) PA (100 μL of vehicle containing 300 μg PA; PA group, n = 10), (c) TO (100 μL of vehicle containing 150 μg TO; TO group, n = 4), (d) Lis (100 μL of vehicle containing 100 μg Lis; Lis group, n = 4), (e) PA plus Lis (100 μL vehicle containing 300 μg PA and 100 μg Lis; PA+Lis group, n = 5), or (f) 30–40 min after ip injection of Race (3 mg Race dissolved in 0.025 mL DMSO and freshly mixed with 0.375 mL saline; Race group, n = 4). In a separate animal group, the mice were coinjected with 100 μL vehicle containing both 300 μg PA and 100 μg DG2 [25] to assess non-specific tumor uptake during in situ NEP inhibition (in vivo CCK2R blockade; block group, n = 4).
as §1

Structure (SMILES): O=C(O)CNC(=O)C(CS)Cc1ccccc1 (racemic) [TO, DL-3-mercapto-2-benzylpropanoylglycine]
- hemodynamic tolerance in human [1]: excellent hemodynamic tolerance

Structure (SMILES): CSCC[C@H](NC(=O)[C@H](Cc1c[nH]c2ccccc12)NC(=O)CNC(=O)[C@H](Cc1ccc(O)cc1)NC(=O)[C@H](C)NC(=O)[C@@H](CCC(=O)O)NC(=O)CN1CCN(CC(=O)O)CCN(CC(=O)O)CCN(CC(=O)O)CC1)C(=O)N[C@@H](CC(=O)O)C(=O)N[C@@H](Cc1ccccc1)C(N)=O [[^111In-DOTA]MG11, metal not drawn] ({DOTA}-[dE]AYGWMDF-NH2)
- tissue uptake at 4 h ([2]; Blood): 0.01 ± 0.01 %ID/g
- tissue uptake at 4 h ([2]; Femur): 0.02 ± 0.01 %ID/g
- tissue uptake at 4 h ([2]; Heart): 0.02 ± 0.01 %ID/g
- tissue uptake at 4 h ([2]; Intestines): 0.83 ± 0.53 %ID/g
- tissue uptake at 4 h ([2]; Kidneys): 1.3 ± 0.29 %ID/g
- tissue uptake at 4 h ([2]; Liver): 0.11 ± 0.02 %ID/g
- tissue uptake at 4 h ([2]; Lung): 0.03 ± 0.01 %ID/g
- tissue uptake at 4 h ([2]; Muscle): 0.02 ± 0.01 %ID/g
- tissue uptake at 4 h ([2]; Pancreas): 0.05 ± 0.02 %ID/g
- tissue uptake at 4 h ([2]; Spleen): 0.06 ± 0.01 %ID/g
- tissue uptake at 4 h ([2]; Stomach): 1.32 ± 0.26 %ID/g
- tissue uptake at 4 h ([2]; Tumor (+) (A431-CCK2R(+))): 2.5 ± 0.92 %ID/g
- tissue uptake at 4 h ([2]; Tumor (−) (A431-CCK2R(−))): 0.12 ± 0.02 %ID/g
- tissue uptake at 4 h ([3]; Blood): 0.04 ± 0.01 %ID/g
- tissue uptake at 4 h ([3]; Femur): 0.09 ± 0.05 %ID/g
- tissue uptake at 4 h ([3]; Heart): 0.05 ± 0.02 %ID/g
- tissue uptake at 4 h ([3]; Intestines): 0.89 ± 0.76 %ID/g
- tissue uptake at 4 h ([3]; Kidneys): 1.86 ± 0.25 %ID/g
- tissue uptake at 4 h ([3]; Liver): 0.13 ± 0.03 %ID/g
- tissue uptake at 4 h ([3]; Lung): 0.07 ± 0.02 %ID/g
- tissue uptake at 4 h ([3]; Muscle): 0.04 ± 0.01 %ID/g
- tissue uptake at 4 h ([3]; Pancreas): 0.11 ± 0.03 %ID/g
- tissue uptake at 4 h ([3]; Spleen): 0.17 ± 0.07 %ID/g
- tissue uptake at 4 h ([3]; Stomach): 1.53 ± 0.65 %ID/g
- tissue uptake at 4 h ([3]; Tumor (AR42J)): 1.82 ± 1.25 %ID/g
